# Literature values in publication PMC6691274 (Molecular Medicine Reports, 2019).
# Where two headings read alike, the source gives them in different places.
# Legend:
# GLP-1R = target: T1, GLP-1R (Rattus norvegicus, UniProt P32301); settings: INS-1 rat insulinoma xenograft model and rat MI/R model
# T1 sequence (P32301 22-463): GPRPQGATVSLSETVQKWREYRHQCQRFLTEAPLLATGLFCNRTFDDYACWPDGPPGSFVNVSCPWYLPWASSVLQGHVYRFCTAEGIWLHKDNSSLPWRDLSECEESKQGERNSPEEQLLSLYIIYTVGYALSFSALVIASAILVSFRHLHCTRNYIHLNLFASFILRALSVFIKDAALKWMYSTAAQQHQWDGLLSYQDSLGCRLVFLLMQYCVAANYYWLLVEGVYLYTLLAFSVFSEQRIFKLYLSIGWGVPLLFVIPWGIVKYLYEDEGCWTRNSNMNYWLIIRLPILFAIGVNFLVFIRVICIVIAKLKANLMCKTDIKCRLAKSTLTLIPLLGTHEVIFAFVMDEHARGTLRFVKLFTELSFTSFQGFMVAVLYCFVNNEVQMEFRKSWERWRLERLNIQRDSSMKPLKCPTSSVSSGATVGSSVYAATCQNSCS
# [1] = test system: dipeptidyl-peptidase-IV (DPP-IV)
substance,measurement,setting,value
^18F-4-fluorobenzamido-N-ethylamino-maleimide (FBEM)-Cys^40-exendin-4 [^18F-FBEM-Cys^40-exendin-4],Affinity with GLP-1R,GLP-1R,high affinity
"Exendin-4: an analog of GLP-1 with 53% amino acid homology, resistant to DPP-IV",Stability towards DPP-IV,[1],resistant
GLP-1: 30-amino-acid-long gut hormone secreted from intestinal endocrine L-cells,Stability towards DPP-IV,[1]; upon being released into the blood,rapidly degraded
